Measured values taken from the supplement of paper PMC10567573.

B1: ETS1 (parent)
chain: YVRDRADLNKDKPVIPAAALAGYT
B2: TPRG1 (parent)
chain: ETIQGFWLLTKIDHWNNEKERILL

Variants of: B1
Assay: protein stability index of a GFP-peptide fusion (GPS, HEK-293T) (PSI 1-6); higher = more stable
Settings: c terminus: a fixed tail appended
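Further: lentivirally expressed fusions sorted by FACS into six bins by GFP to DsRed ratio, PSI derived from sequencing read proportions per bin multiplied by bin number.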

**Q.** Which protein stability index does the source give for HVRDRADLNKDKPVIPAAALAGYT [Y1H] here?
**A.** 3.7

**Q.** For RVRDRADLNKDKPVIPAAALAGYT [Y1R], which protein stability index is on record?
**A.** 3.88

**Q.** With EVRDRADLNKDKPVIPAAALAGYT [Y1E] as the variant, how does the protein stability index read?
**A.** 4.38

**Q.** Which protein stability index does the source give for GVRDRADLNKDKPVIPAAALAGYT [Y1G] here?
**A.** 4.02

**Q.** For WVRDRADLNKDKPVIPAAALAGYT [Y1W], which protein stability index is on record?
**A.** 3.77

**Q.** For TVRDRADLNKDKPVIPAAALAGYT [Y1T], which protein stability index is on record?
**A.** 4.03

**Q.** Which protein stability index does the source give for AVRDRADLNKDKPVIPAAALAGYT [Y1A] here?
**A.** 4.46

**Q.** Which protein stability index does the source give for SVRDRADLNKDKPVIPAAALAGYT [Y1S] here?
**A.** 4.24

**Q.** Which protein stability index does the source give for LVRDRADLNKDKPVIPAAALAGYT [Y1L] here?
**A.** 3.79

**Q.** With VVRDRADLNKDKPVIPAAALAGYT [Y1V] as the variant, how does the protein stability index read?
**A.** 3.65

**Q.** With DVRDRADLNKDKPVIPAAALAGYT [Y1D] as the variant, how does the protein stability index read?
**A.** 4.43

**Q.** With IVRDRADLNKDKPVIPAAALAGYT [Y1I] as the variant, how does the protein stability index read?
**A.** 3.73

**Q.** For MVRDRADLNKDKPVIPAAALAGYT [Y1M], which protein stability index is on record?
**A.** 3.85

**Q.** For FVRDRADLNKDKPVIPAAALAGYT [Y1F], which protein stability index is on record?
**A.** 2.22

**Q.** For KVRDRADLNKDKPVIPAAALAGYT [Y1K], which protein stability index is on record?
**A.** 4.18

**Q.** For QVRDRADLNKDKPVIPAAALAGYT [Y1Q], which protein stability index is on record?
**A.** 4.41

**Q.** With PVRDRADLNKDKPVIPAAALAGYT [Y1P] as the variant, how does the protein stability index read?
**A.** 3.92

**Q.** With NVRDRADLNKDKPVIPAAALAGYT [Y1N] as the variant, how does the protein stability index read?
**A.** 4.3

**Q.** Which protein stability index does the source give for CVRDRADLNKDKPVIPAAALAGYT [Y1C] here?
**A.** 3.31

**Q.** For YDRDRADLNKDKPVIPAAALAGYT [V2D], which protein stability index is on record?
**A.** 4.34

**Q.** For YFRDRADLNKDKPVIPAAALAGYT [V2F], which protein stability index is on record?
**A.** 2.88

**Q.** With YCRDRADLNKDKPVIPAAALAGYT [V2C] as the variant, how does the protein stability index read?
**A.** 2.25

**Q.** Which protein stability index does the source give for YERDRADLNKDKPVIPAAALAGYT [V2E] here?
**A.** 4.25

**Q.** Which protein stability index does the source give for YARDRADLNKDKPVIPAAALAGYT [V2A] here?
**A.** 4.01

Variants of: B2
Assay: as above
Settings: c terminus: a fixed tail appended

**Q.** For ETIQGFWLLTKIDHWNCEKERILL [N17C], which protein stability index is on record?
**A.** 2.54

**Q.** Which protein stability index does the source give for ETIQGFWLLTKIDHWNFEKERILL [N17F] here?
**A.** 2.36

**Q.** Which protein stability index does the source give for ETIQGFWLLTKIDHWNTEKERILL [N17T] here?
**A.** 2.14

**Q.** For ETIQGFWLLTKIDHWNKEKERILL [N17K], which protein stability index is on record?
**A.** 3.22

**Q.** Which protein stability index does the source give for ETIQGFWLLTKIDHWNIEKERILL [N17I] here?
**A.** 2.46

**Q.** Which protein stability index does the source give for ETIQGFWLLTKIDHWNQEKERILL [N17Q] here?
**A.** 4.24

**Q.** For ETIQGEWLLTKIDHWNNEKERILL [F6E], which protein stability index is on record?
**A.** 2.25

**Q.** With ETIQGRWLLTKIDHWNNEKERILL [F6R] as the variant, how does the protein stability index read?
**A.** 1.91

**Q.** For ETIQGDWLLTKIDHWNNEKERILL [F6D], which protein stability index is on record?
**A.** 1.72

**Q.** With ETIQGQWLLTKIDHWNNEKERILL [F6Q] as the variant, how does the protein stability index read?
**A.** 1.91

**Q.** For ETIQGNWLLTKIDHWNNEKERILL [F6N], which protein stability index is on record?
**A.** 2.11

**Q.** With ETIQGSWLLTKIDHWNNEKERILL [F6S] as the variant, how does the protein stability index read?
**A.** 2.37

**Q.** Which protein stability index does the source give for ETIQGMWLLTKIDHWNNEKERILL [F6M] here?
**A.** 1.48

**Q.** Which protein stability index does the source give for ETIQGVWLLTKIDHWNNEKERILL [F6V] here?
**A.** 2.36

**Q.** With ETIQGGWLLTKIDHWNNEKERILL [F6G] as the variant, how does the protein stability index read?
**A.** 1.97

**Q.** Which protein stability index does the source give for ETIQGWWLLTKIDHWNNEKERILL [F6W] here?
**A.** 1.12

**Q.** Which protein stability index does the source give for ETIQGFWLLTKIDHINNEKERILL [W15I] here?
**A.** 1.74

**Q.** With ETIQGFWLLTKIDHVNNEKERILL [W15V] as the variant, how does the protein stability index read?
**A.** 2.49

**Q.** Which protein stability index does the source give for ETIQGFWLLTKIDHDNNEKERILL [W15D] here?
**A.** 1.62

**Q.** With ETIQGFWLLTKIDHKNNEKERILL [W15K] as the variant, how does the protein stability index read?
**A.** 2.04

**Q.** For ETIQGFWLLTKIDHHNNEKERILL [W15H], which protein stability index is on record?
**A.** 2.16

**Q.** Which protein stability index does the source give for ETIQGFWLLTKIDHCNNEKERILL [W15C] here?
**A.** 1.56

**Q.** With ETIQGFWLLTKIDHGNNEKERILL [W15G] as the variant, how does the protein stability index read?
**A.** 4.15

**Q.** With ETIQGFWLLTKIDHRNNEKERILL [W15R] as the variant, how does the protein stability index read?
**A.** 3.5

**Q.** With ETIQGFWLLTKIDHWNNEKERILP [L24P] as the variant, how does the protein stability index read?
**A.** 2.8

**Q.** With ETIQGFWLLTKIDHWNNEKERILW [L24W] as the variant, how does the protein stability index read?
**A.** 2.52

**Q.** With ETIQGFWLLTKIDHWNNEKERILH [L24H] as the variant, how does the protein stability index read?
**A.** 4.13

**Q.** Which protein stability index does the source give for ETIQGFWLLTKIDHWNNEKERILC [L24C] here?
**A.** 2.36

**Q.** Which protein stability index does the source give for ETIQGFWLLTKIDHWNNEKERILQ [L24Q] here?
**A.** 3.61

**Q.** Which protein stability index does the source give for ETIQGFWLLTKIDHWNNEKERILG [L24G] here?
**A.** 4.41

**Q.** With ETIQGFWLLTKIDHWNNEKERILV [L24V] as the variant, how does the protein stability index read?
**A.** 2.5

**Q.** For ETIQGFWLLTKIDHWNNEKERILN [L24N], which protein stability index is on record?
**A.** 3.07

**Q.** Which protein stability index does the source give for ETIQGFWLITKIDHWNNEKERILL [L9I] here?
**A.** 3

**Q.** With ETIQGFWLCTKIDHWNNEKERILL [L9C] as the variant, how does the protein stability index read?
**A.** 2.35

**Q.** For ETIQGFWLHTKIDHWNNEKERILL [L9H], which protein stability index is on record?
**A.** 1.87

**Q.** For ETIQGFWLRTKIDHWNNEKERILL [L9R], which protein stability index is on record?
**A.** 1.49

**Q.** Which protein stability index does the source give for ETIQGFWLMTKIDHWNNEKERILL [L9M] here?
**A.** 2.1

**Q.** For ETIQGFWLNTKIDHWNNEKERILL [L9N], which protein stability index is on record?
**A.** 1.16

**Q.** Which protein stability index does the source give for ETIQGFWLTTKIDHWNNEKERILL [L9T] here?
**A.** 1.33

**Q.** Which protein stability index does the source give for ETIQGFWLETKIDHWNNEKERILL [L9E] here?
**A.** 2.2

**Q.** With EKIQGFWLLTKIDHWNNEKERILL [T2K] as the variant, how does the protein stability index read?
**A.** 2.22

**Q.** For EQIQGFWLLTKIDHWNNEKERILL [T2Q], which protein stability index is on record?
**A.** 2.82

**Q.** For EHIQGFWLLTKIDHWNNEKERILL [T2H], which protein stability index is on record?
**A.** 1.67

**Q.** For ELIQGFWLLTKIDHWNNEKERILL [T2L], which protein stability index is on record?
**A.** 1.67

**Q.** Which protein stability index does the source give for ERIQGFWLLTKIDHWNNEKERILL [T2R] here?
**A.** 3.03

**Q.** With ETRQGFWLLTKIDHWNNEKERILL [I3R] as the variant, how does the protein stability index read?
**A.** 1.88

**Q.** With ETCQGFWLLTKIDHWNNEKERILL [I3C] as the variant, how does the protein stability index read?
**A.** 2.25

**Q.** For ETVQGFWLLTKIDHWNNEKERILL [I3V], which protein stability index is on record?
**A.** 3.9

**Q.** Which protein stability index does the source give for ETGQGFWLLTKIDHWNNEKERILL [I3G] here?
**A.** 2.14

**Q.** Which protein stability index does the source give for ETPQGFWLLTKIDHWNNEKERILL [I3P] here?
**A.** 2.05

**Q.** Which protein stability index does the source give for ETDQGFWLLTKIDHWNNEKERILL [I3D] here?
**A.** 1.39

**Q.** Which protein stability index does the source give for ETYQGFWLLTKIDHWNNEKERILL [I3Y] here?
**A.** 2.55

**Q.** For ETEQGFWLLTKIDHWNNEKERILL [I3E], which protein stability index is on record?
**A.** 2.04

**Q.** With ETNQGFWLLTKIDHWNNEKERILL [I3N] as the variant, how does the protein stability index read?
**A.** 1.71

**Q.** With ETIQGFWLLTKIDHWNNEKERIKL [L23K] as the variant, how does the protein stability index read?
**A.** 1.23

**Q.** With ETIQGFWLLTKIDHWNNEKERIVL [L23V] as the variant, how does the protein stability index read?
**A.** 3.52

**Q.** Which protein stability index does the source give for ETIQGFWLLTKIDHWNNEKERIYL [L23Y] here?
**A.** 4.45

**Q.** For ETIQGFWLLTKIDHWNNEKERIAL [L23A], which protein stability index is on record?
**A.** 2.89

**Q.** Which protein stability index does the source give for ETIQGFWLLTKIDHWNNEKERIIL [L23I] here?
**A.** 3.88

**Q.** With ETIQGFWLLTKIDHWNNEKERISL [L23S] as the variant, how does the protein stability index read?
**A.** 3.2

**Q.** With ETIQGFWLLTKIDHWNNEKERIML [L23M] as the variant, how does the protein stability index read?
**A.** 3.45

**Q.** For ETIQGFWLLTKEDHWNNEKERILL [I12E], which protein stability index is on record?
**A.** 2.55

**Q.** Which protein stability index does the source give for ETIQGFWLLTKNDHWNNEKERILL [I12N] here?
**A.** 2.83

**Q.** For ETIQGFWLLTKCDHWNNEKERILL [I12C], which protein stability index is on record?
**A.** 2.08

**Q.** Which protein stability index does the source give for ETIQGFWLLTKTDHWNNEKERILL [I12T] here?
**A.** 1.58

**Q.** For ETIQGFWLLTKGDHWNNEKERILL [I12G], which protein stability index is on record?
**A.** 1.13

**Q.** With ETIQGFWLLTKSDHWNNEKERILL [I12S] as the variant, how does the protein stability index read?
**A.** 2.09

**Q.** For LTIQGFWLLTKIDHWNNEKERILL [E1L], which protein stability index is on record?
**A.** 4.7

**Q.** With ATIQGFWLLTKIDHWNNEKERILL [E1A] as the variant, how does the protein stability index read?
**A.** 2.75

**Q.** For NTIQGFWLLTKIDHWNNEKERILL [E1N], which protein stability index is on record?
**A.** 2.13
